Three proteins from US20120094377A1 (EVROGEN JSC, published 2012) can be followed below.

Series [1] concerns the molecule itself. As to the kind of experiment: FPLC gel filtration, Superdex 200 (self-association). On the procedure: Gel filtration chromatography was performed using a Superdex 200 10/300 GL column (Amersham Biosciences), equilibrated with 40 mm Tris-HCl (pH 7.5), 150 mm NaCl buffer at a flow rate of 0.4 ml/min. Apparent molecular masses were calculated by interpolating an elution volume versus log (molecular mass) calibration curve using ferritin (440 kDa), catalase (232 kDa), aldolase (158 kDa), BSA (67 kDa), ovalbumin (43 kDa), chymotrypsinogen A (25 kDa), and ribonuclease A (13.7 kDa). 200 uL of each fluorescent protein at concentration 1 mg/ml were loaded.
Background: In gel filtration, larger molecules generally elute earlier.

Series [2] concerns the molecule itself. Briefly: FPLC gel filtration of purified protein (homodimerization).

B1: mKate2.7C (other)
chain: MVSELIKENMPMKLYMEGTVNNHHFKCTSEGEGKPYEGTQTMRIKVVEGGPLPFAFDILATSFMYGSRTFIKHPPGIPDFFKQSFPEGFTWERVTTYEDGGVLTATQDTSLQDGCLIYNVKVRGVNFPANGPVMQKKTLGWEASTETMYPADGGLEGACDMALKLVGGGHLICNLETTYRSKKPATNLKMPGVYNVDHRLERIKEADDETYVEQHEVAVARYSTGGAGDGGK
notes: A vector His tag from pQE30 is probably present but not described; It was tested for self-association by FPLC
As for B1, the binding result in series [1] is reported as “no binding (tested: >1 mg/ml)”.

B2: mKate2.5 (other)
chain: MVSELIKENMHMKLYMEGTVNNHHFKCTSEGEGKPYEGTQTMRIKVVEGGPLPFAFDILATSFMYGSKTFINHPQGIPDFFKQSFPEGFTWERVTTYEDGGVLTATQDTSLQDGCLIYNVKIRGVNFPANGPVMQKKTLGWEASTETLYPADGGLEGACDMALKLVGGGHLICNLETTYRSKKPAKNLKMPGVYNVDRRLERIKEADNETYVEQHEVAVARYSTGGAGDGGK
notes: as for B1
As to B2, the binding result in series [1] is listed as “no binding (tested: >1 mg/ml)”.

B3: mKate2 protein (other)
chain: MVSELIKENMHMKLYMEGTVNNHHFKCTSEGEGKPYEGTQTMRIKAVEGGPLPFAFDILATSFMYGSKTFINHTQGIPDFFKQSFPEGFTWERVTTYEDGGVLTATQDTSLQDGCLIYNVKIRGVNFPSNGPVMQKKTLGWEASTETLYPADGGLEGRADMALKLVGGGHLICNLKTTYRSKKPAKNLKMPGVYYVDRRLERIKEADKETYVEQHEVAVARYCDLPSKLGHR
notes: Engineered far-red fluorescent protein derived from Entacmaea quadricolor eqFP578; The partner is a second copy of the same protein (self-association / dimerization seen by FPLC)
For B3, the binding result in series [2] was “binds”.
